Reference: patent US20080292639A1

Molecular target: native amyloid plaques in unfixed brain sections of Tg2576 APP transgenic mice (human) (UniProt P05067)
Test: cell-based or functional assay

Chain of native amyloid plaques in unfixed brain sections of Tg2576 APP transgenic mice (human) (P05067 672-713 limits assumed): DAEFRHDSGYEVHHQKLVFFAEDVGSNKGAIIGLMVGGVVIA

Substance | EC50 of antibody induced phagocytosis of amyloid
mAb 4G8 (commercially available anti-Aβ antibody) | 0.8 µg/mL
mAb 6E10 (antibody) | 5 µg/mL
